Protein stability index data for 94 variants are collected here from the supplement of paper PMC10567573.

B1: RIPK4 (parent)
chain: RERMELLEEAKKMEMAKFRYILPV
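Further: lentivirally expressed fusions sorted by FACS into six bins by GFP to DsRed ratio, PSI derived from sequencing read proportions per bin multiplied by bin number.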

In this series the parent is B1. Nature of the series: protein stability index of a GFP-peptide fusion (GPS, HEK-293T) (PSI 1-6); higher = more stable. As to conditions: c terminus: a fixed tail appended.
In the case of RERMELLEEAKKMEMAKFRNILPV, the protein stability index came to 3.05.
As for RERMELLEEAKKMEMAKFRLILPV, the figure is 2.03; as for RERMELLEEAKKMEMAKFREILPV, 4.16.
As for RERMELLEEAKKMEMAKFRCILPV, the figure is 2.67; as for RERMELLEEAKKMEMAKFRWILPV, 2.24; as for RERMELLEEAKKMEMAKFRHILPV, 2.83.
For RERMELLEEAKKMEMAKFRTILPV, the protein stability index was 3.4.
In the case of RERMELLEEAKKMEMAKFRQILPV, the protein stability index was 2.34.
As for RERMELLEEAKKMEMAKFRAILPV, the figure is 3.73; as for RERMELLEEAKKMEMAKFRMILPV, 2.18; as for RERMELLEEAKKMEMAKFRVILPV, 2.59.
As for RERMELLEEAKKMEMAKFRFILPV, the figure is 2.27; as for RERMELLEEAKKMEMAKFRIILPV, 1.93.
Take RERMELLEEAKKMEMAKFRSILPV: the protein stability index turned out to be 3.91.
As for RERMELLEEAKKMEMAKFRPILPV, the figure is 3.57.
As for RERMELLEEAKKMEMAKFRGILPV, the figure is 3.74; as for RERMELLEEAKKMEMAKFRDILPV, 2.55; as for RERMELLEEAKKMEMAKFGYILPV, 3.03.
As for RERMELLEEAKKMEMAKFFYILPV, the figure is 1.15.
On to RERMELLEEAKKMEMAKFEYILPV, for which the protein stability index worked out at 3.28.
As for RERMELLEEAKKMEMAKFMYILPV, the figure is 1.97.
As for RERMELLEEAKKMEMAKFAYILPV, the figure is 1.96.
As for RERMELLEEAKKMEMAKFNYILPV, the figure is 2.94.
Consider RERMELLEEAKKMEMAKFCYILPV, for which the protein stability index was 2.51.
As for RERMELLEEAKKMEMAKFHYILPV, the figure is 2.6; as for RERMELLEEAKKMEMAKFSYILPV, 2.86.
As for RERMELLEEAKKMEMAKFDYILPV, the figure is 3.47; as for RERMELLEEAKKMEMAKFLYILPV, 2.14.
As for RERMELLEEAKKMEMAKFPYILPV, the figure is 2.13.
In the case of RERMELLEEAKKMEMAKFTYILPV, the protein stability index amounted to 2.67.
With RERMELLEEAKKMEMAKFQYILPV, the protein stability index was found to be 3.65.
On to RERMELLEEAKKMEMAKFYYILPV, for which the protein stability index amounted to 2.38.
In the case of RERMELLEEAKKMEMAKFKYILPV, the protein stability index was 3.04.
As for RERMELLEEAKKMEMAKFIYILPV, the figure is 1.27; as for RERMELLEEAKKMEMAGFRYILPV, 2.94.
As to RERMELLEEAKKMEMATFRYILPV, the protein stability index is 3.1.
As for RERMELLEEAKKMEMASFRYILPV, the figure is 2.99.
As for RERMELLEEAKKMEMALFRYILPV, the figure is 2.04.
As for RERMELLEEAKKMEMADFRYILPV, the figure is 2.84; as for RERMELLEEAKKMEMAYFRYILPV, 2.8.
With RERMELLEEAKKMEMAFFRYILPV, the protein stability index turned out to be 1.26.
As for RERMELLEEAKKMEMANFRYILPV, the figure is 1.01.
As for RERMELLEEAKKMEMAIFRYILPV, the figure is 2.72.
As for RERMELLEEAKKMEMAQFRYILPV, the figure is 3.5; as for RERMELLEEAKKMEMAWFRYILPV, 2.29.
Turning to RERMELLEEAKKMEMAMFRYILPV, the protein stability index worked out at 3.5.
As to RERMELLEEAKKMEMAPFRYILPV, the protein stability index came out at 1.86.
In the case of RERMELLEEAKKMEMAVFRYILPV, the protein stability index came out at 2.75.
With RERMELLEEAKKMEMAHFRYILPV, the protein stability index worked out at 2.68.
In the case of RERMELLEEAKKMEMAKFRYILEV, the protein stability index is 2.7.
RERMELLEEAKKMEMAKFRYILNV: the protein stability index came to 1.63.
As for RERMELLEEAKKMEMAKFRYILIV, the figure is 2.09.
Turning to RERMELLEEAKKMEMAKFRYILSV, the protein stability index came to 3.96.
As for RERMELLEEAKKMEMAKFRYILCV, the figure is 3.02; as for RERMELLEEAKKMEMAKFRYILMV, 2; as for RERMELLEEAKKMEMAKFRYILKV, 1.83.
As for RERMELLEEAKKMEMAKFRYILQV, the figure is 1.69; as for RERMELLEEAKKMEMAKFRYILVV, 2.29; as for RERMELLEEAKKMEMAKFRYILDV, 2.03.
As for RERMELLEEAKKMEMAKFRYILHV, the figure is 2.9; as for RERMELLEEAKKMEMAKFRYILGV, 1.95.
Take RERMELLEEAKKMEMAKFRYILRV: the protein stability index stood at 3.69.
As for RERMELLEEAKKMEMAKQRYILPV, the figure is 3.61.
RERMELLEEAKKMEMAKGRYILPV: the protein stability index stood at 3.69.
As for RERMELLEEAKKMEMAKERYILPV, the protein stability index was found to be 3.55.
As for RERMELLEEAKKMEMAKARYILPV, the figure is 3.16.
RERMELLEEAKKMEMAKCRYILPV: the protein stability index came out at 2.75.
As for RERMELLEEAKKMEMAKIRYILPV, the figure is 2.79; as for RERMELLEEAKKMEMAKTRYILPV, 3.81; as for RERMELLEEAKKMEMAKMRYILPV, 2.75.
As for RERMELLEEAKKMEMAKPRYILPV, the figure is 3.86; as for RERMELLEEAKKMEMAKKRYILPV, 4.06.
As for RERMELLEEAKKMEMAKNRYILPV, the figure is 4.03; as for RERMELLEEAKKMEMAKFRYKLPV, 3.45; as for RERMELLEEAKKMEMAKFRYRLPV, 3.2.
Consider RERMELLEEAKKMEMAKFRYYLPV, for which the protein stability index came to 2.18.
As for RERMELLEEAKKMEMAKFRYNLPV, the figure is 3.85; as for RERMELLEEAKKMEMAKFRYLLPV, 3.42; as for RERMELLEEAKKMEMAKFRYELPV, 4.11.
As for RERMELLEEAKKMEMAKFRYWLPV, the figure is 2.05; as for RERMELLEEAKKMEMAKFRYFLPV, 4.25.
On to RERMELLEEAKKMEMAKFRYHLPV, for which the protein stability index is 2.94.
As for RERMELLEEAKKMEMAKFRYGLPV, the figure is 3.68; as for RERMELLEEAKKMEMAKFRYIMPV, 3.57; as for RERMELLEEAKKMEMAKFRYIPPV, 4.95.
As for RERMELLEEAKKMEMAKFRYIWPV, the figure is 2.53; as for RERMELLEEAKKMEMAKFRYISPV, 3.28; as for RERMELLEEAKKMEMAKFRYIRPV, 4.07.
As for RERMELLEEAKKMEMAKFRYIAPV, the figure is 4.27.
In the case of RERMELLEEAKKMEMAKFRYIIPV, the protein stability index was determined as 5.51.
As to RERMELLEEAKKMEMAKFRYIQPV, the protein stability index worked out at 3.69.
As for RERMELLEEAKKMEMAKFRYIKPV, the figure is 4.1; as for RERMELLEEAKKMEMAKFRYINPV, 3.07; as for RERMELLEEAKKMEMAKFRYILPD, 3.64.
